# Data from the nanobody polyreactivity screen of Harvey et al. (2022).
# Assay: yeast display, Sf9 membrane polyspecificity reagent, FACS + sequencing; frameworks hold sequencing errors
# In short: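 Galactose-induced (36–48 hours) yeast carrying a synthetic nanobody display library were exposed to 10% biotinylated, detergent-solubilized Sf9 membrane reagent at 4 °C for 1 hour. FACS followed streptavidin microbead enrichment, using low and high (top ~1%) gates for expression (anti-HA) and reagent binding (streptavidin). Colony PCR, MiSeq 2 × 250 sequencing and CDR-length filtering followed. Labels for polyreactivity reflect the gate of origin.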
row,Sequence,polyreactivity (PSR sort gate)
1,QVQLVESGGGLVQAGGSLRLSCAASGFTFSQYAMGWYRQAPGKERELDAAISWNGGSTYYADSVKGRFTISRDNAKNTVYLQMNSLKPEDTAVYYCAAYGYYTKVTKYDYWGQGTQVTVSS,high polyreactivity
2,QVQLVESGGGLVQAGGSLRLSCAASGFTFSRNAMGWYRQAPGKERELVAAIDSGGSTDYADSVKGRFTISRDNAKNTVYLQLNSLKPEDTAVYYCAKASSATRYVQLRQDYDYWGQGTQVTVSS,low polyreactivity
3,QVQLVESGGGLVQAGGSLRLSCAASGFTFSRNTMGSSRQAPGKERELVARIPASGGSTYYADSVKGRFTISRDNAKNTVYLLMNSLNPEDTAVYYCAAVYRRYGASRYDYWGQGTQVTVSS,high polyreactivity
4,QVQLVESGGGLVQAGGSLRLSCAASGFTFSRYAMGWYRQAPGKEREFVAAISWSGGSTYYADSVKGRFTISRDNAKNTVYLQMNSLKPEDTAVYYCNAGSQLLASQTRYDYWGQGTQVTVSS,low polyreactivity
5,QVQLVESGGGLVQAGGSLRLSCAASGFTFSRYVMGWYRQAPGKERELVATISSDGDDTYYADSVKGRFTISRDNAKNTVYLQMNSLKPEDTAVYYCAAESYTYYADYGYGYWGQGTQVTVSS,high polyreactivity
6,QVQLVESGGGLVQAGGSLRLSCAASGFTFSSYAMGWYRQEPGKERELVAAISTSGASTYYADSVKGRFTISRDNAKNTVYLQMNSLKPEDTAVYYCNVPQWHRWYRYPGEDYDYWGQGTQVTVSS,high polyreactivity
7,QVQLVESGGGLVQAGGSLRLSCAASGFTFSTNAMGWYRQAPGKERELVAAITWRGGSTYYADSVKGRFTISRDNAKNTVYLQMNSLKPEDTAVYYCARRSRGSHVSYYKKFDYWGQGTQVTVSS,low polyreactivity
8,QVQLVESGGGLVQAGGSLRLSCAASGFTFSTYTMGWYRQAPGKERELVARITWSGTRTYYADSVKGRFTISRDNAKNTVYLQMNSLKPEDTAVYYCNAGPYARYYWGQGTQVTVSS,high polyreactivity
9,QVQLVESGGGLVQAGGSLRLSCAASGFTFSVNAMGWYRQAPGKERELVAAITRSGGRTYYADSVKGRFTISRDNAKNTVYLQMNSLKPEDTAVYYCATPRSRTDGYDYWGQGTQVTVSS,high polyreactivity
10,QVQLVESGGGLVQAGGSLRLSCAASGFTFSWYALGWYRQAPGKERELVAAINWSGTSTYYADSVKGRFTISRDNAKNTVYLQMNSLKPEDTAVYYCNVVVYRWSPVSKLDYWGQGTQVTVSS,high polyreactivity
11,QVQLVESGGGLVQAGGSLRLSCAASGFTFSWYAMGRYRQAPGKERELVAAISSAGNTNYADSVKGRFTISRDNAKNTVYLQMNSLKPEDTAVYYCAKRDYWGQGTQVTVSS,high polyreactivity
12,QVQLVESGGGLVQAGGSLRLSCAASGFTFSWYAMGWYRQAPGKERELVAAINADGGTTYYADSVKGRFTISRDNAKNTVYLQMNRLKPEDTAVYYCAAELSVDKYDYWGQGTQVTVSS,low polyreactivity
13,QVQLVESGGGLVQAGGSLRLSCAASGFTFSWYAMGWYRQAPGKETELVAAITRSGGSTNYADSVKGRFTISRDNAKNTVYLQMNSLKPEDTAVYYCNAAGYRRSTWWYDYWGQGTQVTVSS,high polyreactivity
14,QVQLVESGGGLVQAGGSLRLSCAASGFTFSYNSMGRYRQATAKERELVARISRTGGSTNYADSVKGRFTISRDNAKNTVYLQMNSLKPEDTAVYYCATGYRYTYGSWGQGTQVTVSS,high polyreactivity
15,QVQLVESGGGLVQAGGSLRLSCAASGFTFSYYAMGWDRQAPGKERELVAVISNSDGSTYYADSVKGRFTISRDNAKNTVYLQMNSLNPEDTAVYYCAAVPLWDYKFFYYLLYDYWGQGTQVTVSS,low polyreactivity
16,QVQLVESGGGLVQAGGSLRLSCAASGFTFSYYAMGWYRQAPGKERELVAAISWSGTAMYYADSVKGRFTISRDNAKNTVYLQMNSLKPEDTAVYYCAAGYSASRKVDYWGQGTQVTVSS,high polyreactivity
17,QVQLVESGGGLVQAGGSLRLSCAASGFTFSYYAMGWYRQAPGKERELVAAITKRGGRTYYADSVKGRFTISRDNAKNTVYLQMNSLKPEDTAVYYCAVQARNAFYRPAFDYWGQGTQVTVSS,high polyreactivity
18,QVQLVESGGGLVQAGGSLRLSCAASGFTFSYYAMGWYRQAPGKERELVARISFSGTRTYYADSVKGRFTISRDNAKNTVYLQMNSLKQEDTAVYYCAARLGYVGITARYDYWGQGTQVTVSS,high polyreactivity
19,QVQLVESGGGLVQAGGSLRLSCAASGFTFSYYAMGWYRQAPGKERELVAVISDRGGITYYADSVKGRFTISRDIAKITVYLQMNSLKPEDTAVYYCAAQNPRYNYRYYYWGQGTQVTVSS,low polyreactivity
20,QVQLVESGGGLVQAGGSLRLSCAASGFTFSYYAMGWYRQATGKERELVAAITSGGSTDYADSVKGRFTISRDNAKNTVYLQMNSLKPEDTAVYYCAVTARGGYQGKGTRRIYGYWGHGTQVTVSS,high polyreactivity
21,QVQLVESGGGLVQAGGSLRLSCAASGFTFSYYARGWYRQAPGKARELVATISSGGITNYADSVKGRFTISRDNAKNTDYLQMNSLKPEDTAVYYCAAEPSWWNVFYPGYNYWGQGTQVTVSS,high polyreactivity

row,Sequence,polyreactivity (PSR sort gate)
1,QVQLVESGGGLVQAGGSLRLSCAASGFTFSYYVMGWYRQAAGKERELVAAINRGGSTNYADSVKRRFTISRDNAKNTVYLQMNSLKPEDTAVYYCAARFPGYGYWGQGTEVTVSS,high polyreactivity
2,QVQLVESGGGLVQAGGSLRLSCAASGFTFTENVMGWYRQAPGKEREFVAAITYIGGRTYYADSVKGRFTISRDNAKNTVYFQMNSLKPEDTAVYYCAADWAYYVDSYLYYTFDYWGQGTQVTVSS,low polyreactivity
3,QVQLVESGGGLVQAGGSLRLSCAASGFTFTEYAMGWYRQAPGKERELVADITWSGGITYYADSVKGRFTISRDNAKNTVYLQMNSLKPEDTAVYYCNADYIYSYFYIRYDYWGQGTQVTVSS,low polyreactivity
4,QVQLVESGGGLVQAGGSLRLSCAASGFTFTFYALGWYRQAPGKERELVAAIRTSDGRTYYADSVKGRFTISRDNAKNTVYLQMNSLKPEDTAVYYCNARRYVGYDYWGQGSQVTVSS,high polyreactivity
5,QVQLVESGGGLVQAGGSLRLSCAASGFTFTGYAMGWYRQAPGKERELVAVISSRGGSTYYADSVKGRFTISRDNAKNTVYLQMNSLKPEDTAVYYCAARGYKGFSSPFGYWGQGTQVTVSS,high polyreactivity
6,QVQLVESGGGLVQAGGSLRLSCAASGFTFTKNTMGWYRQAPGKERELVAAITKSGGRTYYADSVKGRFTISRDNAKNTVYLQMNSLKPEDTAVYYCAADYVRNNYPYGYWGQGTQVTVSS,high polyreactivity
7,QVQLVESGGGLVQAGGSLRLSCAASGFTFTPNAMGWYRQAPGKERELVAVITWNGGTTYYADSVKGRFTISRDNAKNTVYLQMNSLKPEDTAVYYCNADGLILYDYWGQGTQVTVSS,low polyreactivity
8,QVQLVESGGGLVQAGGSLRLSCAASGFTFTPYAMGLYSQAPGKERELVAAITWRGGTYYADSVKGRFTISRDNAKKSVYLQMNSLKPEDTAVYYCAARVWRLYPSTYDYWGQGTQVTVSS,high polyreactivity
9,QVQLVESGGGLVQAGGSLRLSCAASGFTFTQYGMGWYRQAPGKEREFVATIRFSGDNTYYADSVKGRFTISRDNAKNTVYLQMNSLKPEDTAVYYCNADNRAFFVYPVSKRYDSWGQGSQVTVSS,low polyreactivity
10,QVQLVESGGGLVQAGGSLRLSCAASGFTFTRNAMGWYRQAPGKEMELVAGITFIGTSTYYADSVKGRFTISRDNAKNTVYLQMNSLKPEDTAVYYCAKEYDDYVYGYHYTRYGYWGQGTQVTVSS,low polyreactivity
11,QVQLVESGGGLVQAGGSLRLSCAASGFTFTRNAMGWYRQAPGKERELVAAINFRSDRTFYADSVKGRFTISRDNAKNTVYLQMNSLKPEDTAVYYCAAQVGRGYEVYPVYKYGYWGQGTQVTVSS,high polyreactivity
12,QVQLVESGGGLVQAGGSLRLSCAASGFTFTRNTMGWYRQAPGKERELVAAITRGGSTNYADSVKGRFTITRDNAKNTVYLQMNSLKPEDTAVYYCAADAPFDRPYNYWGQGTQVTVSS,low polyreactivity
13,QVQLVESGGGLVQAGGSLRLSCAASGFTFTRYALGWYRQAPGKERELVAAISWSGGSTYYADSVKGRFTISRDNAKNTVYLQMNSLKPEDTAVYYCAKRGTVRQGGYGYWGQGTQVTVSS,high polyreactivity
14,QVQLVESGGGLVQAGGSLRLSCAASGFTFTRYAMGWSRQAPGKERELVAAMSRGGTTYADSVKGRFTISRDNAKNTVYLQMNSLKPDDTAVYYCNRLRYCYPQEFGYWGLGTQVTVSS,high polyreactivity
15,QVQLVESGGGLVQAGGSLRLSCAASGFTFTRYAMGWYIQAPGKERELVAAISRRSGGRTYYADSVKGRFTISRDNAKNTVYLQMNSLKPEDTAVYYCAADYSLRSGYEYWGQGTQVTVSS,high polyreactivity
16,QVQLVESGGGLVQAGGSLRLSCAASGFTFTRYAMGWYRQAPGKERELVAAISRSGTSTYYADSVKGRFTISRDNAKNTVYLQMNSLKPEDTAVYYCAAYFGTTGRYALYDYWGQGTQVTVSS,high polyreactivity
17,QVQLVESGGGLVQAGGSLRLSCAASGFTFTRYAMGWYRQAPGKERELVATITKRGGSTYYADSVKGRFTISRDNAKNTVYLQMNSLKPEDTAVYYCAADGASRALYDFWGQGTQVTVSS,high polyreactivity
18,QVQLVESGGGLVQAGGSLRLSCAASGFTFTRYAMGWYRQAPGKERELVATITKRGGSTYYADSVKGRFTISRDNAKNTVYLQMNSLKPEDTAVYYCAADGASRALYDYWGQGTQVTLSS,high polyreactivity
19,QVQLVESGGGLVQAGGSLRLSCAASGFTFTRYAMGWYRQAPGKERELVAVITSSGTSTYYADSVKGRFTISRDNAKNTVYLQMNSLKPEDTAVYYCAARTHRRDFYYWGQGTQVTVSS,high polyreactivity
20,QVQLVESGGGLVQAGGSLRLSCAASGFTFTTYAMGWYRQAPRQVRELVAAITRRGGSTYYADSVKGRFTISRDNEKNTVYLQMNSLKPEDTAVYYCAAGGGWGLDFWGQGTQVTVSS,high polyreactivity
